Test results from patent publication US20190330374A1 (IGM BIOSCIENCES, published 2019).

T1: OX40 on activated T cells (PBMCs activated with Human T cell Activator Dynabeads) (human, UniProt P43489 29-277)
T1 construct: Native OX40 on donor PBMC T cells; also called OX40 on CD8+ T cells (low levels); OX40 on CD4+ T cells (high levels)
T1 sequence: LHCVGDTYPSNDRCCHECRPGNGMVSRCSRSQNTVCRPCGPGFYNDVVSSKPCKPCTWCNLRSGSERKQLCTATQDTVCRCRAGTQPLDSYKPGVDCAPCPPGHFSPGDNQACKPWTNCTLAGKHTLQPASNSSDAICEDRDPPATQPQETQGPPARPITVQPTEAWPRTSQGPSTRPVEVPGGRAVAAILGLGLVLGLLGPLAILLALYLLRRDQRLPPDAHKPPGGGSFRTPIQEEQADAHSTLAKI

B1: Anti-OX40 #1-IgM (antibody, V domains shown)
VH: QVQLQESGPGLVKPSQTLSLTCAVYGGSFSSGYWNWIRKHPGKGLEYIGYISYNGITYHNPSLKSRITINRDTSKNQYSLQLNSVTPEDTAVYYCARYKYDYDGGHAMDYWGQGTLVTVSS
VL: DIQMTQSPSSLSASVGDRVTITCRASQDISNYLNWYQQKPGKAPKLLIYYTSKLHSGVPSRFSGSGSGTDYTLTISSLQPEDFATYYCQQGSALPWTFGQGTKVEIK
B2: Anti-OX40 #1-IgG (antibody, V domains shown)
VH: QVQLQESGPGLVKPSQTLSLTCAVYGGSFSSGYWNWIRKHPGKGLEYIGYISYNGITYHNPSLKSRITINRDTSKNQYSLQLNSVTPEDTAVYYCARYKYDYDGGHAMDYWGQGTLVTVSS
VL: DIQMTQSPSSLSASVGDRVTITCRASQDISNYLNWYQQKPGKAPKLLIYYTSKLHSGVPSRFSGSGSGTDYTLTISSLQPEDFATYYCQQGSALPWTFGQGTKVEIK
notes: VH and VL put into an IgG format by standard cloning; It was detected with anti-human kappa light chain, so the light chain is kappa; also called anti-OX40 IgG #1

What was measured:
[1] = molecular target: OX40 in the PathHunter U2OS OX40 Signaling Assay (DiscoverX) cells; assay: cell-based or functional assay
[2] = molecular target: T1, OX40 on activated T cells (PBMCs …); assay: flow cytometry on activated PBMC T cells
Method: Ab binding was tested on PBMCs activated for 3 days with Human T cell Activator Dynabeads (Thermo-Fisher) to induce low levels of OX40 on CD8+ T cells (FIG. 3A, 3C) or high levels of OX40 on CD4+ T cells (FIG. 3B, 3D). […] For the PBMCs, anti-CD3-A647 (Biolegend) and CD4-PerCP-CY5.5 (Biolegend) were also included to gate on CD4+CD3+ CD4 T cells and CD4-CD3+ CD8 T cells. FACS data was acquired on a FACSCalibur (BD), analyzed in FlowJo (TreeStar), and plotted in GraphPad Prism. […] Kd was calculated for each antibody in GraphPad Prism software using One Site-Specific binding with Hill slope.

Binder	fold increase in NF-kB activation (RLU at the highest antibody concentration) compared to uncross-linked Anti-OX40 #1-IgG [1]	fold increase in signaling activation (RLU at the highest antibody concentration) compared to cross-linked Anti-OX40 #1-IgG [1]	binding result [2]
B1	23 fold	13 fold	
B2			binds
